The values that follow come from patent US20150224182A1 (UNIVERSITY OF VIRGINIA PATENT FOUNDATION, published 2015).

Non-standard residues stand in square brackets, D forms with d. No end group written: not given here. pT = C[C@@H](OP(=O)(O)O)[C@H](N)C(=O)O; pS = N[C@@H](COP(=O)(O)O)C(=O)O

For assay [1], the target named is T1, HLA-B*0702 (human).
T1 construct: also called HLA-B7
The assay is described as follows: HLA-B7 eluate MS; AML1; 2 means 1-5 copies/cell.

In assay [2] the target is T2, HLA-A*0201 (human).
T2 construct: also called HLA-A2
Description: competition with iodinated [..] for purified HLA-A*0201 plus β2M, capture on W6/32 plates.

The target in assay [3] is T2, HLA-A*0201. Description: not described.
In assay [4] the target is T1, HLA-B*0702. Description: HLA-B7 eluate MS; ALL1; 2 means 1-5 copies/cell.
In assay [5] the target is T1, HLA-B*0702. The assay is described as follows: HLA-B7 eluate MS; ALL1; 4 means >25 copies/cell.
Assay [6] deals with T2, HLA-A*0201. The assay is described as follows: MS of HLA-A*0201 (BB7.2) eluate; cultured melanocytes; +++ means 50-500 copies/cell.
Assay [7] concerns the target T3, HLA B*0702 (human).
T3 construct: Class I MHC molecule of the cells from which the associated phosphopeptides were detected; also called HLA-B7
The assay is described as follows: MS of peptides eluted from HLA; L/M column: empty.

Assay [8] has as its target T2, HLA-A*0201. Description: MS of HLA-A*0201 (BB7.2) eluate; cultured melanocytes; ++ means 5-50 copies/cell.
Assay [9] deals with T1, HLA-B*0702. The assay is described as follows: HLA-B7 eluate MS; ALL1; 3 means 6-25 copies/cell.
Assay [10] deals with T2, HLA-A*0201. Description: HLA-A2 eluate MS; CLL2; 1 means <1 copy/cell.
Assay [11] addresses T2, HLA-A*0201. Description: HLA-A2 binding affinity, method not described.
Assay [12] concerns the target T2, HLA-A*0201. Description: HLA-A2 binding affinity.
Assay [13] has as its target T2, HLA-A*0201. Description: competition binding assay on purified HLA-A*0201.
For assay [14], the target named is T2, HLA-A*0201. The assay is described as follows: HLA-A2 eluate MS; CLL4; 1 means <1 copy/cell.
For assay [15], the target named is T1, HLA-B*0702. Description: HLA-B7 eluate MS; AML1; 3 means 6-25 copies/cell.
Assay [16] has as its target T3, HLA B*0702. Description: MS of peptides eluted from HLA; L/M column: L/M.
The target of assay [17] is T1, HLA-B*0702. Description: HLA-B7 eluate MS; AML1; 4 means >25 copies/cell.
Assay [18] deals with T3, HLA B*0702. The assay is described as follows: MS of peptides eluted from HLA; L/M column: M.

B1: MIIP phosphopeptide RPRPHsAPSL (peptide)
peptide: RPRPH[pS]APSL
Take B1: the binding result with HLA-B*0702 [1] is listed as “binds”.

B2: CHAF1A phosphopeptide SPRsPSTTYL (peptide)
peptide: SPR[pS]PSTTYL
As to B2, the binding result with HLA-B*0702 [1] is recorded as “binds”.

B3: pS33/S37-βcat30 (doubly phosphorylated β-catenin 30-39) (peptide)
peptide: YLD[pS]GIH[pS]GA
notes: also called pS33/pS37-βcat30; pS33/37-βcat30
As for B3, the IC50 in the assay with HLA-A*0201 [2] turned out to be 0.678 µg/mL.

B4: IRS2 phosphopeptide RVApSPTSGVKR (peptide)
peptide: RVA[pS]PTSGVKR
On to B4, for which, in the assay with HLA-A*0201 [3], the binding result is listed as “no binding”.

B5: GRK2 phosphopeptide KPRsPVVEL (peptide)
peptide: KPR[pS]PVVEL
notes: also called Beta-Adrenergic receptor kinase 1
With B5, the binding result with HLA-B*0702 [4] is listed as “binds”.

B6: MEF2D phosphopeptide RPAsAGAML (peptide)
peptide: RPA[pS]AGAML
With B6, the binding result in the assay with HLA-B*0702 [5] is listed as “binds”.

B7: RREB1 phosphopeptide RPRANsGGVDL (peptide)
peptide: RPRAN[pS]GGVDL
For the molecule B7, the binding result in the assay with HLA-B*0702 [1] is “binds”.

B8: MYL9 phosphopeptide RPQRATsNVF (peptide)
peptide: RPQRAT[pS]NVF
In the case of B8, the binding result in the assay with HLA-B*0702 [1] is reported as “binds”.

B9: VPS13D phosphopeptide RSLsPLLF (peptide)
peptide: RSL[pS]PLLF
As for B9, in the assay with HLA-B*0702 [4], the binding result is listed as “binds”.

B10: Heat shock protein 27 (HSP27) phosphopeptide RQLpSSGVSEI (peptide)
peptide: RQL[pS]SGVSEI
notes: also called HSPB1
In the case of B10, the binding result with HLA-A*0201 [6] is listed as “binds”.

B11: RPVsPFQEL (peptide)
peptide: RPV[pS]PFQEL
Consider B11, for which the binding result with HLA B*0702 [7] was “binds”.

B12: ZC3H14 phosphopeptide KPAsPKFIVTL (peptide)
peptide: KPA[pS]PKFIVTL
B12: the binding result in the assay with HLA-B*0702 [1] is “binds”.

B13: MYC phosphopeptide KPPHsPLVL (peptide)
peptide: KPPH[pS]PLVL
In the case of B13, the binding result with HLA-B*0702 [5] is recorded as “binds”.

B14: β-Synemin phosphopeptide RTFpSPTYGL (peptide)
peptide: RTF[pS]PTYGL
notes: also called SYNM; pS429-β-Synemin426-434
In the case of B14, the binding result with HLA-A*0201 [8] is recorded as “binds”.

B15: phosphopeptide RLLpSPLSSA (source protein Unknown in Table 5) (peptide)
peptide: RLL[pS]PLSSA
notes: also called RAVER1
Take B15: the binding result with HLA-A*0201 [8] is reported as “binds”.

B16: SPEN phosphopeptide KPPtPGASF (peptide)
peptide: KPP[pT]PGASF
For the molecule B16, the binding result with HLA-B*0702 [9] is given as “binds”.

B17: RBM14 phosphopeptide FRRsPTKSSL (peptide)
peptide: FRR[pS]PTKSSL
As for B17, the binding result in the assay with HLA-B*0702 [1] was “binds”.

B18: NCOR2 phosphopeptide KAKsPAPGL (peptide)
peptide: KAK[pS]PAPGL
As to B18, in the assay with HLA-A*0201 [10], the binding result is recorded as “binds”.

B19: SRRM2 phosphopeptide RAPsPSSRM (peptide)
peptide: RAP[pS]PSSRM
In the case of B19, in the assay with HLA-B*0702 [5], the binding result is on record as “binds”.

B20: BCAR3 phosphopeptide IMDRtPEKL (peptide)
peptide: IMDR[pT]PEKL
notes: also called natural BCAR3pT130
For B20, the binding result in the assay with HLA-A*0201 [11] was “binds”.

B21: Nuclear hormone receptor TR2 phosphopeptide RQDpSTPGKVFL (peptide)
peptide: RQD[pS]TPGKVFL
notes: also called NR2C1
For B21, the binding result with HLA-A*0201 [8] is “binds”.

B22: NFATC2 phosphopeptide KPYsPLASL (peptide)
peptide: KPY[pS]PLASL
Turning to B22, in the assay with HLA-B*0702 [4], the binding result is listed as “binds”.

B23: pS33-βcat30 (YLD(pS)GIHSGA, β-catenin 30-39 with phosphoserine 33) (peptide)
peptide: YLD[pS]GIHSGA
notes: also called pS33-βcatenin30-39; YLDsGIHSGA
In the case of B23, the IC50 with HLA-A*0201 [2] was determined as 0.327 µg/mL.

B24: pS33-βcat(V)30 (YLDsGIHSGV) (peptide)
peptide: YLD[pS]GIHSGV
notes: also called pS33-βcatenin30-39(V); modified phosphopeptide
With B24, in the assay with HLA-A*0201 [12], the “fold enhancement of HLA-A2 binding affinity over pS33-βcatenin30-39” value is approximately 10 fold. For the same molecule, in the assay with HLA-A*0201 [13], the “fold higher HLA-A*0201 binding affinity than pS33-βcat30” value turned out to be 8 fold. Further, in the assay with HLA-A*0201 [2], the IC50 is 0.041 µg/mL.

B25: N4BP2 phosphopeptide KMDsFLDMQL (peptide)
peptide: KMD[pS]FLDMQL
For B25, the binding result in the assay with HLA-A*0201 [14] is on record as “binds”.

B26: KIAA1310 phosphopeptide RPAsPAAKL (peptide)
peptide: RPA[pS]PAAKL
On to B26, for which, in the assay with HLA-B*0702 [4], the binding result was “binds”.

B27: GFI1 phosphopeptide QPRsPGPDYSL (peptide)
peptide: QPR[pS]PGPDYSL
On to B27, for which the binding result with HLA-B*0702 [15] is given as “binds”.

B28: SPRRsRSISL (peptide)
peptide: SPRR[pS]RSISL
For the molecule B28, the binding result with HLA B*0702 [16] is on record as “binds”.

B29: SYNPO phosphopeptide RPSRSsPGL (peptide)
peptide: RPSRS[pS]PGL
For B29, the binding result with HLA-B*0702 [1] is on record as “binds”.

B30: MKI67IP phosphopeptide RRKsQVAEL (peptide)
peptide: RRK[pS]QVAEL
Turning to B30, the binding result in the assay with HLA-B*0702 [17] is listed as “binds”.

B31: SON phosphopeptide FSIsPVRL (peptide)
peptide: FSI[pS]PVRL
Regarding B31, in the assay with HLA-B*0702 [5], the binding result was “binds”.

B32: IRS2 phosphopeptide RVAsPTSGVK (peptide)
peptide: RVA[pS]PTSGVK
notes: also called RVAk
On to B32, for which the binding result in the assay with HLA-A*0201 [3] is “no binding”.

B33: Adenosine monophosphate deaminase 2 phosphopeptide RQIpSQDVKL (peptide)
peptide: RQI[pS]QDVKL
notes: also called AMPD2
In the case of B33, the binding result with HLA-A*0201 [8] is given as “binds”.

B34: PCBP2 phosphopeptide RPKPSSsPV (peptide)
peptide: RPKPSS[pS]PV
Consider B34, for which, in the assay with HLA-B*0702 [4], the binding result is “binds”.

B35: RERE phosphopeptide RPPsSEFLDL (peptide)
peptide: RPP[pS]SEFLDL
Consider B35, for which the binding result with HLA-B*0702 [9] is given as “binds”.

B36: SETD2 phosphopeptide RPDsRLGKTEL (peptide)
peptide: RPD[pS]RLGKTEL
For the molecule B36, in the assay with HLA-B*0702 [4], the binding result is recorded as “binds”.

B37: RBM14 phosphopeptide FRRsPTKSSLDY (peptide)
peptide: FRR[pS]PTKSSLDY
B37: the binding result with HLA-B*0702 [17] was “binds”.

B38: AKAP13 phosphopeptide RPRsAVLL (peptide)
peptide: RPR[pS]AVLL
Regarding B38, the binding result with HLA-B*0702 [1] is given as “binds”.

B39: MYL9 phosphopeptide RPQRAtSNVF (peptide)
peptide: RPQRA[pT]SNVF
Take B39: in the assay with HLA-B*0702 [5], the binding result was “binds”.

B40: RPAsARAQPGL (peptide)
peptide: RPA[pS]ARAQPGL
Take B40: the binding result with HLA B*0702 [16] was “binds”.

B41: GIGYF2 phosphopeptide YQRsFDEVEGVF (peptide)
peptide: YQR[pS]FDEVEGVF
B41: the binding result in the assay with HLA-B*0702 [1] is recorded as “binds”.

B42: SFRS7 phosphopeptide SPRRsRSISL (peptide)
peptide: SPRR[pS]RSISL
As to B42, the binding result with HLA-B*0702 [17] is reported as “binds”.

B43: RPAsPAAKL (peptide)
peptide: RPA[pS]PAAKL
For the molecule B43, the binding result with HLA B*0702 [18] is given as “binds”.

B44: RBM17 phosphopeptide RPRsPTGPsNSF (peptide)
peptide: RPR[pS]PTGP[pS]NSF
notes: also called Splicing factor 45
On to B44, for which the binding result with HLA-B*0702 [1] is “binds”.

B45: phosphopeptide RPVsPFQEL (no gene name in Table 7; no database hit) (peptide)
peptide: RPV[pS]PFQEL
Regarding B45, in the assay with HLA-B*0702 [9], the binding result is on record as “binds”.

B46: KPRsPVVEL (peptide)
peptide: KPR[pS]PVVEL
As for B46, the binding result in the assay with HLA B*0702 [16] was “binds”.

B47: GRM5 phosphopeptide RPRsPSPIS (peptide)
peptide: RPR[pS]PSPIS
B47: the binding result in the assay with HLA-B*0702 [1] is “binds”.

B48: SCAP phosphopeptide RPPsPGPVL (peptide)
peptide: RPP[pS]PGPVL
Regarding B48, in the assay with HLA-B*0702 [4], the binding result was “binds”.

B49: ARHGAP30 phosphopeptide RPAKsMDSL (peptide)
peptide: RPAK[pS]MDSL
Consider B49, for which, in the assay with HLA-B*0702 [4], the binding result is given as “binds”.

B50: FAM53C phosphopeptide RPYsPPFFSL (peptide)
peptide: RPY[pS]PPFFSL
On to B50, for which the binding result with HLA-B*0702 [4] is on record as “binds”.

B51: ORF 17, chromosome 2 phosphopeptide RLSpSPLHFV (peptide)
peptide: RLS[pS]PLHFV
notes: also called Protein FAM134A
For B51, the binding result with HLA-A*0201 [6] was “binds”.

B52: ANKRD17 phosphopeptide SPSsPSVRRQL (peptide)
peptide: SPS[pS]PSVRRQL
As to B52, the binding result in the assay with HLA-B*0702 [1] is “binds”.

B53: RBM17 phosphopeptide RPRsPTGP (peptide)
peptide: RPR[pS]PTGP
notes: as for B44
Take B53: the binding result in the assay with HLA-B*0702 [17] is listed as “binds”.

B54: KLF10 phosphopeptide RPVtPVSDL (peptide)
peptide: RPV[pT]PVSDL
As for B54, in the assay with HLA-B*0702 [5], the binding result is “binds”.

One may read the IC50 as the concentration that gives 50% inhibition.
